In patent US20060058231A1 (Xencor, published 2006):
Changes are numbered by the printed parent chain.

T1: BMPRIb receptor-Fc fusion (UniProt O00238 14-126)
T1 construct: BMP receptor-Fc fusion used at 5 ug/mL; also called ALK-6
T1 sequence (looked up): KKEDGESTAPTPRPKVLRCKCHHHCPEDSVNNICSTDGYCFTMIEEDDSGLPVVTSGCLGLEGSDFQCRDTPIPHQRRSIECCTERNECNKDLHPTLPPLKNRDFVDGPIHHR

T2: BMPRII receptor-Fc fusion (UniProt Q13873 27-151, limits assumed)
T2 construct: BMP receptor-Fc fusion used at 5 ug/mL
T2 sequence (looked up): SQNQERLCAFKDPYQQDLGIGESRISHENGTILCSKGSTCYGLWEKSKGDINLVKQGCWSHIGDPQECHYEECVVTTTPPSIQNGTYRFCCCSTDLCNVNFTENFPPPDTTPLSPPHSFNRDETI

B1: BMP-7 variant F93T (ligand)
chain: STGGKQRSQNRSKTPKNQEALRMASVAENSSSDQRQACKKHELYVSFRDLGWQDWIIAPEGYAAYYCEGECAFPLNSYMNATNHAIVQTLVHTINPETVPKPCCAPTQLNAISVLYFDDSSNVILKKYRNMVVRACGCH
notes: In conditioned media; numbering on mature BMP-7
B2: BMP-7 variant F117K (ligand)
chain: B1 chain with T93F, F117K
notes: as for B1
B3: BMP-7 variant K39A (ligand)
chain: B1 chain with K39A, T93F
notes: as for B1
B4: BMP-7 variant F117Y (ligand)
chain: B1 chain with T93F, F117Y
notes: as for B1
B5: BMP-7 variant L90P (ligand)
chain: B1 chain with L90P, T93F
notes: as for B1
B6: BMP-7 variant I86Q (ligand)
chain: B1 chain with I86Q, T93F
notes: as for B1
B7: BMP-7 variant K39S (ligand)
chain: B1 chain with K39S, T93F
notes: as for B1
B8: BMP-7 variant I86K (ligand)
chain: B1 chain with I86K, T93F
notes: as for B1
B9: BMP-7 variant K39N (ligand)
chain: B1 chain with K39N, T93F
notes: as for B1
B10: BMP-7 variant L21G (ligand)
chain: B1 chain with L21G, T93F
notes: as for B1
B11: BMP-7 variant L21N (ligand)
chain: B1 chain with L21N, T93F
notes: as for B1
B12: BMP-7 variant L90H (ligand)
chain: B1 chain with L90H, T93F
notes: as for B1
B13: BMP-7 variant I57L (ligand)
chain: B1 chain with I57L, T93F
notes: as for B1
B14: BMP-7 variant L90G (ligand)
chain: B1 chain with L90G, T93F
notes: as for B1
B15: BMP-7 variant L21D (ligand)
chain: B1 chain with L21D, T93F
notes: as for B1
B16: BMP-7 variant K126Q (ligand)
chain: B1 chain with T93F, K126Q
notes: as for B1
B17: BMP-7 variant L90E (ligand)
chain: B1 chain with L90E, T93F
notes: as for B1
B18: BMP-7 variant L21R (ligand)
chain: B1 chain with L21R, T93F
notes: as for B1
B19: BMP-7 variant I86D (ligand)
chain: B1 chain with I86D, T93F
notes: as for B1
B20: BMP-7 variant I86E (ligand)
chain: B1 chain with I86E, T93F
notes: as for B1
B21: BMP-7 variant F117R (ligand)
chain: B1 chain with T93F, F117R
notes: as for B1
B22: BMP-7 variant K126E (ligand)
chain: B1 chain with T93F, K126E
notes: as for B1
B23: BMP-7 variant L90T (ligand)
chain: B1 chain with L90T, T93F
notes: as for B1
B24: BMP-7 variant I94Q (ligand)
chain: B1 chain with T93F, I94Q
notes: as for B1

These binders were tested against T3, ActRIIa receptor-Fc fusion (UniProt P27037 20-134, limits assumed) (assay: ELISA-like plate assay, captured BMP-7 from conditioned media, receptor-Fc detection).
T3 construct: BMP receptor-Fc fusion used at 5 ug/mL
T3 sequence (P27037 20-134 limits assumed): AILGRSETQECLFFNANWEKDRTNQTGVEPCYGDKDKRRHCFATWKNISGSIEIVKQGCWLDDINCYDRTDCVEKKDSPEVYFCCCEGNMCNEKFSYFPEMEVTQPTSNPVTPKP

ActRIIa binding (relative to wild type = 1.0)	Binder
0.79 relative to wild type	B1
0.34 relative to wild type	B2
1.06 relative to wild type	B3
1.03 relative to wild type	B4
0.75 relative to wild type	B5
0.96 relative to wild type	B6
1.04 relative to wild type	B7
0.97 relative to wild type	B8
1.08 relative to wild type	B9
1.5 relative to wild type	B10
1.03 relative to wild type	B11
0.47 relative to wild type	B12
0.9 relative to wild type	B13
0.87 relative to wild type	B14
0.94 relative to wild type	B15
0.81 relative to wild type	B16
0.24 relative to wild type	B17
0.84 relative to wild type	B18
1.09 relative to wild type	B19
1 relative to wild type	B20
0.35 relative to wild type	B21
0.26 relative to wild type	B22
0.66 relative to wild type	B23
1.1 relative to wild type	B24

These binders were tested against T4, BMPRIa receptor-Fc fusion (UniProt P36894 24-152, limits assumed) in the same assay as above.
T4 construct: also called ALK-3
T4 sequence (P36894 24-152 limits assumed): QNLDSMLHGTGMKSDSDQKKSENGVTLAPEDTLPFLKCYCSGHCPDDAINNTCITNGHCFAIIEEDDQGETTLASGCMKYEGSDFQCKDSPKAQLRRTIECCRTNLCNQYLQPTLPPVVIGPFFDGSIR

BMPRIa binding (relative to wild type = 1.0)	Binder
0.77 relative to wild type	B1
0.43 relative to wild type	B2
3.48 relative to wild type	B3
1.07 relative to wild type	B4
0.46 relative to wild type	B5
0.66 relative to wild type	B6
2.77 relative to wild type	B7
0.81 relative to wild type	B8
1.98 relative to wild type	B9
2.53 relative to wild type	B10
1.57 relative to wild type	B11
0.36 relative to wild type	B12
0.92 relative to wild type	B13
0.55 relative to wild type	B14
1.01 relative to wild type	B15
0.46 relative to wild type	B16
0.2 relative to wild type	B17
0.83 relative to wild type	B18
1.03 relative to wild type	B19
0.66 relative to wild type	B20
0.47 relative to wild type	B21
0.23 relative to wild type	B22
0.48 relative to wild type	B23
0.74 relative to wild type	B24

What follows are binders tested against T1, BMPRIb receptor-Fc fusion in the same assay as above.

BMPRIb binding (relative to wild type = 1.0)	Binder
0.88 relative to wild type	B1
0.62 relative to wild type	B2
2.86 relative to wild type	B3
0.73 relative to wild type	B4
0.52 relative to wild type	B5
0.82 relative to wild type	B6
2.23 relative to wild type	B7
0.69 relative to wild type	B8
1.63 relative to wild type	B9
3.65 relative to wild type	B10
2.81 relative to wild type	B11
0.55 relative to wild type	B12
1.17 relative to wild type	B13
0.65 relative to wild type	B14
1.52 relative to wild type	B15
0.57 relative to wild type	B16
0.27 relative to wild type	B17
1.01 relative to wild type	B18
1.18 relative to wild type	B19
0.69 relative to wild type	B20
0.71 relative to wild type	B21
0.22 relative to wild type	B22
0.64 relative to wild type	B23
0.74 relative to wild type	B24

The binders below were run against T2, BMPRII receptor-Fc fusion in the same assay as above.

BMPRII binding (relative to wild type = 1.0)	Binder
0.81 relative to wild type	B1
0.2 relative to wild type	B2
1.51 relative to wild type	B3
0.96 relative to wild type	B4
0.17 relative to wild type	B5
1.07 relative to wild type	B6
1.37 relative to wild type	B7
1.02 relative to wild type	B8
0.99 relative to wild type	B9
2.3 relative to wild type	B10
1.73 relative to wild type	B11
0.2 relative to wild type	B12
0.4 relative to wild type	B13
0.28 relative to wild type	B14
0.94 relative to wild type	B15
0.28 relative to wild type	B16
0.18 relative to wild type	B17
0.66 relative to wild type	B18
1.31 relative to wild type	B19
1.13 relative to wild type	B20
0.72 relative to wild type	B21
0 relative to wild type	B22
0.29 relative to wild type	B23
1.32 relative to wild type	B24
